{"source": "patent US6090631", "key": {"[1]": {"molecular_target": "GST-syntaxin 1A fusion protein, full-length (2-289) (rat)", "assay": "titration on GST-syntaxin beads, immunoblot"}, "[2]": {"molecular_target": "GST-syntaxin 1A fusion protein, full-length (2-289) (rat)", "assay": "GST-syntaxin pull-down at equal concentrations, immunoblot"}, "[3]": {"molecular_target": "GST-syntaxin 1A fusion protein, full-length (2-289) (rat)", "assay": "GST-syntaxin 1A pull-down (5 µM GST-syntaxin, 10 µM fusion protein), immunoblot"}, "[4]": {"molecular_target": "GST alone (Schistosoma japonicum (Blood fluke)) [GST: P08515]", "assay": "125I-ω-CTx-GVIA-labeled channels on GST beads, direct counting"}, "[5]": {"molecular_target": "GST-syntaxin 1A fusion protein, full-length (2-289) (rat)", "assay": "competition on GST-syntaxin beads against 125I-ω-CTx-GVIA-labeled N-type channels"}, "[6]": {"molecular_target": "GST fusion protein including full-length SNAP-25 (Mus musculus (Mouse)) (UniProt P60879)", "assay": "titration on GST-SNAP-25 beads, immunoblot"}}}
{"substance": "rbB 718-963", "values": [{"measurement": "fold greater affinity than hBI 722-1036", "setting": "[1]", "result": 10, "unit": "fold"}, {"measurement": "half-maximal saturation", "setting": "[1]", "result": 0.2, "unit": "µM"}, {"measurement": "fold higher affinity than rbB 718-859", "setting": "[2]", "result": 40, "unit": "fold"}, {"measurement": "pixel value (phosphorimaging of bound fusion protein, FIG. 14)", "setting": "[3]", "result": 1650, "unit": "pixel value"}]}
{"substance": "[125I]-ω-CTx-GVIA-labeled N-type calcium channels, partially purified from rat brain (from UniProt Q02294)", "values": [{"measurement": "cpm of labeled channels bound", "setting": "[4]", "result": 549, "unit": "cpm"}]}
{"substance": "His-LII-III (718-859)", "values": [{"measurement": "pixel value (phosphorimaging of bound fusion protein, FIG. 14)", "setting": "[3]", "result": 45, "unit": "pixel value"}]}
{"substance": "His-LII-III (1027-1145)", "values": [{"measurement": "percent reduction in the specific binding of labeled N-type channels to GST-syntaxin", "setting": "[5]", "result": 10, "unit": "%"}]}
{"substance": "His-LII-III (832-963)", "values": [{"measurement": "pixel value (phosphorimaging of bound fusion protein, FIG. 14)", "setting": "[3]", "result": 751, "unit": "pixel value"}]}
{"substance": "hBI 722-1036", "values": [{"measurement": "half-maximal saturation", "setting": "[6]", "result": "1 to 2", "unit": "µM"}, {"measurement": "half-maximal saturation", "setting": "[1]", "result": 2, "unit": "µM"}]}
{"substance": "His-LII-III (773-859)", "values": [{"measurement": "percent reduction in the specific binding of labeled N-type channels to GST-syntaxin", "setting": "[5]", "result": 78, "unit": "%"}]}
